Test results as given in ChEMBL document CHEMBL2074000, “Transport of ethinylestradiol glucuronide and ethinylestradiol sulfate by the multidrug resistance proteins MRP1, MRP2, and MRP3” (J Pharmacol Exp Ther, 2004).

Experiments:
[1] = substrate: C#C[C@]1(O)CC[C@H]2[C@@H]3CCc4cc(O[C@@H]5O[C@H](C(=O)O)[C@@H](O)[C@H](O)[C@H]5O)ccc4[C@H]3CC[C@@]21C; assay: TP_TRANSPORTER: uptake in membrane vesicle from MRP3-expressing Sf9 cells; type: functional, cell membranes
[2] = substrate: [H][C@@]12CC[C@@](O)(C#C)[C@@]1(C)CC[C@]1([H])c3ccc(O[C@@H]4O[C@H](C(=O)O)[C@@H](O)[C@H](O)[C@H]4O)cc3CC[C@@]21[H]; assay: TP_TRANSPORTER: uptake in membrane vesicles from MRP2-expressing Sf9 cells; type: functional, cell membranes, Membrane vesicle

| Protein | Km [1] [µM] | Km [2] [µM] |
| --- | --- | --- |
| Multidrug resistance associated protein (Homo sapiens), Q96QA9 (protein) MDALCGSGELGSKFWDSNLSVHTENPDLTPCFQNSLLAWVPCIYLWVALPCYLLYLRHHCRGYIILSHLSKLKMVLGVLLWCVSWADLFYSFHGLVHGRAPAPVFFVTPLVVGVTMLLATLLIQYERLQGVQSSGVLIIFWFLCVVCAIVPFRSKILLAKAEGEISDPFRFTTFYIHFALVLSALILACFREKPPFFSAKNVDPNPYPETSAGFLSRLFFWWFTKMAIYGYRHPLEEKDLWSLKEEDRSQMVVQQLLEAWRKQEKQTARHKASAAPGKNASGEDEVLLGARPRPRKPSFLKALLATFGSSFLISACFKLIQDLLSFINPQLLSILIRFISNPMAPSWWGFLVAGLMFLCSMMQSLILQHYYHYIFVTGVKFRTGIMGVIYRKALVITNSVKRASTVGEIVNLMSVDAQRFMDLAPFLNLLWSAPLQIILAIYFLWQNLGPSVLAGVAFMVLLIPLNGAVAVKMRAFQVKQMKLKDSRIKLMSEILNGIKVLKLYAWEPSFLKQVEGIRQGELQLLRTAAYLHTTTTFTWMCSPFLVTLITLWVYVYVDPNNVLDAEKAFVSVSLFNILRLPLNMLPQLISNLTQASVSLKRIQQFLSQEELDPQSVERKTISPGYAITIHSGTFTWAQDLPPTLHSLDIQVPKGALVAVVGPVGCGKSSLVSALLGEMEKLEGKVHMKGSVAYVPQQAWIQNCTLQENVLFGKALNPKRYQQTLEACALLADLEMLPGGDQTEIGEKGINLSGGQRQRVSLARAVYSDADIFLLDDPLSAVDSHVAKHIFDHVIGPEGVLAGKTRVLVTHGISFLPQTDFIIVLADGQVSEMGPYPALLQRNGSFANFLCNYAPDEDQGHLEDSWTALEGAEDKEALLIEDTLSNHTDLTDNDPVTYVVQKQFMRQLSALSSDGEGQGRPVPRRHLGPSEKVQVTEAKADGALTQEEKAAIGTVELSVFWDYAKAVGLCTTLAICLLYVGQSAAAIGANVWLSAWTNDAMADSRQNNTSLRLGVYAALGILQGFLVMLAAMAMAAGGIQAARVLHQALLHNKIRSPQSFFDTTPSGRILNCFSKDIYVVDEVLAPVILMLLNSFFNAISTLVVIMASTPLFTVVILPLAVLYTLVQRFYAATSRQLKRLESVSRSPIYSHFSETVTGASVIRAYNRSRDFEIISDTKVDANQRSCYPYIISNRWLSIGVEFVGNCVVLFAALFAVIGRSSLNPGLVGLSVSYSLQVTFALNWMIRMMSDLESNIVAVERVKEYSKTETEAPWVVEGSRPPEGWPPRGEVEFRNYSVRYRPGLDLVLRDLSLHVHGGEKVGIVGRTGAGKSSMTLCLFRILEAAKGEIRIDGLNVADIGDPILFSGTLRMNLDPFGSYSEEDIWWALELSHLHTFVSSQPAGLDFQCSEGGENLSVGQRQLVCLARALLRKSRILVLDEATAAIDLETDNLIQATIRTQFDTCTVLTIAHRLNTIMDYTRVLVLDKGVVAEFDSPANLIAARGIFYGMARDAGLA | 9.2 |  |
| ATP-binding cassette sub-family C member 2 (Homo sapiens) (protein) MLEKFCNSTFWNSSFLDSPEADLPLCFEQTVLVWIPLGYLWLLAPWQLLHVYKSRTKRSSTTKLYLAKQVFVGFLLILAAIELALVLTEDSGQATVPAVRYTNPSLYLGTWLLVLLIQYSRQWCVQKNSWFLSLFWILSILCGTFQFQTLIRTLLQGDNSNLAYSCLFFISYGFQILILIFSAFSENNESSNNPSSIASFLSSITYSWYDSIILKGYKRPLTLEDVWEVDEEMKTKTLVSKFETHMKRELQKARRALQRRQEKSSQQNSGARLPGLNKNQSQSQDALVLEDVEKKKKKSGTKKDVPKSWLMKALFKTFYMVLLKSFLLKLVNDIFTFVSPQLLKLLISFASDRDTYLWIGYLCAILLFTAALIQSFCLQCYFQLCFKLGVKVRTAIMASVYKKALTLSNLARKEYTVGETVNLMSVDAQKLMDVTNFMHMLWSSVLQIVLSIFFLWRELGPSVLAGVGVMVLVIPINAILSTKSKTIQVKNMKNKDKRLKIMNEILSGIKILKYFAWEPSFRDQVQNLRKKELKNLLAFSQLQCVVIFVFQLTPVLVSVVTFSVYVLVDSNNILDAQKAFTSITLFNILRFPLSMLPMMISSMLQASVSTERLEKYLGGDDLDTSAIRHDCNFDKAMQFSEASFTWEHDSEATVRDVNLDIMAGQLVAVIGPVGSGKSSLISAMLGEMENVHGHITIKGTTAYVPQQSWIQNGTIKDNILFGTEFNEKRYQQVLEACALLPDLEMLPGGDLAEIGEKGINLSGGQKQRISLARATYQNLDIYLLDDPLSAVDAHVGKHIFNKVLGPNGLLKGKTRLLVTHSMHFLPQVDEIVVLGNGTIVEKGSYSALLAKKGEFAKNLKTFLRHTGPEEEATVHDGSEEEDDDYGLISSVEEIPEDAASITMRRENSFRRTLSRSSRSNGRHLKSLRNSLKTRNVNSLKEDEELVKGQKLIKKEFIETGKVKFSIYLEYLQAIGLFSIFFIILAFVMNSVAFIGSNLWLSAWTSDSKIFNSTDYPASQRDMRVGVYGALGLAQGIFVFIAHFWSAFGFVHASNILHKQLLNNILRAPMRFFDTTPTGRIVNRFAGDISTVDDTLPQSLRSWITCFLGIISTLVMICMATPVFTIIVIPLGIIYVSVQMFYVSTSRQLRRLDSVTRSPIYSHFSETVSGLPVIRAFEHQQRFLKHNEVRIDTNQKCVFSWITSNRWLAIRLELVGNLTVFFSALMMVIYRDTLSGDTVGFVLSNALNITQTLNWLVRMTSEIETNIVAVERITEYTKVENEAPWVTDKRPPPDWPSKGKIQFNNYQVRYRPELDLVLRGITCDIGSMEKIGVVGRTGAGKSSLTNCLFRILEAAGGQIIIDGVDIASIGLHDLREKLTIIPQDPILFSGSLRMNLDPFNNYSDEEIWKALELAHLKSFVASLQLGLSHEVTEAGGNLSIGQRQLLCLGRALLRKSKILVLDEATAAVDLETDNLIQTTIQNEFAHCTVITIAHRLHTIMDSDKVMVLDNGKIIECGSPEELLQIPGPFYFMAKEAGIENVNSTKF |  | 35.1 |
